From publication PMC11481913, “Rational design of a flavoenzyme for aerobic nicotine catabolism” (mBio, 2024)

Molecular target: the molecule itself
Experiment: SEC; Superdex 200 Increase 10/300 GL; molecular weight by elution (Fig. S2)

B1: PnaoΔN30 (residues 31–497) (enzyme, Pseudomonas putida S16, UniProt F8G0P1 31-496, looked up)
chain: IASQLLTLSAPAEAAVKTNVGPSRAGVGYDVIVIGGGFAGVTAAREASRSGLKTLILEGRSRLGGRTFTSKLQNQKVELGGTWVHWTQPNVWTEIMHYGLEVEETVGLANPETVIWVTEDNVKRAPAAEAFEIFGSACNEYYKEARNIYPRPFEPFFERKKLQHVDGLSAADYLEKLPLTREQKDMMDSWLSGNGHNYPETIAYSEIMRWFALSNFNMPTMFDSIARYKIKTGTHSLLEAIMADGNSEVKLSTPVTKVNQDKDKVTVTTEDGVFTASAVIVAVPINTLHDIEYSPKLSAAKVDMGSQRHAGAGVKGYIRVKQNVGNVMTYAPARNKLTPFTSVFTDHVDESGTLLIAFSADPKLIDINDIKAVEKALQPLLPGVEVTASYGYDWNLDPFSKGTWCTYRPNQTTRYLTELQKREGRLFFAGSDMANGWRGFIDGAIENGREVGHQVATYLKRENDNA
notes: Pnao, flavin-dependent pseudooxynicotine oxidase of Pseudomonas putida S16; N-terminal truncation of 30 residues, residues 31-497; Cloned in pET-28a between NcoI and XhoI, which probably gives a C-terminal His6 tag; also called pseudooxynicotine amine oxidase; source: E. coli BL21(DE3), purified (Ni2+-NTA, size-exclusion chromatography)
stoichiometry N: 2
